The values that follow come from US20180002420A1 (TRELLIS BIOSCIENCE, published 2018).

Experiment [1] concerns the target T1, KIR2DL1 Extracellular Domain (UniProt P43626 22-245, limits assumed).
T1 construct: extracellular domain; ECD either purchased or produced in house; also called KIR2DL1 ECD
The experiment can be described thus: adsorption ELISA on coated KIR ECD, serial dilutions; printed as 'Affinity nM'. The procedure:
(§1) The mAbs prepared in Example 1 were tested in adsorption ELISA using different KIR Extracellullar Domains (ECD), either purchased or produced in house. Serial dilutions allowed calculating binding affinities (listed below in Table 1 in nM); ND: not detectable.
For orientation: ELISA stands for enzyme-linked immunosorbent assay.

For experiment [2], the target named is T2, KIR3DS1 Extracellular Domain (UniProt Q14943 22-340, limits assumed).
T2 construct: extracellular domain; ECD either purchased or produced in house; also called KIR3DS1 ECD
Described as above. The procedure:
as §1

The target of experiment [3] is T3, KIR2DL4 Extracellular Domain (UniProt Q99706 22-242, limits assumed).
T3 construct: extracellular domain; ECD either purchased or produced in house; also called KIR2DL4 ECD
Described as above. The procedure:
as §1

For experiment [4], the target named is T4, KIR2DL3 Extracellular Domain (UniProt P43628 22-245, limits assumed).
T4 construct: extracellular domain; ECD either purchased or produced in house; also called KIR2DL3 ECD
Described as above. The procedure:
as §1

The target in experiment [5] is T5, KIR2DL2 Extracellular Domain (UniProt P43627 22-245, limits assumed).
T5 construct: extracellular domain; ECD either purchased or produced in house; also called KIR2DL2 ECD
The experiment is described as above. How it is done:
as §1

The target in experiment [6] is T6, KIR3DL1 Extracellular Domain (UniProt P43629 22-340, limits assumed).
T6 construct: extracellular domain; ECD either purchased or produced in house; also called KIR3DL1 ECD
Described as above. How it is done:
as §1

Another experiment deals with T7, BSA (UniProt P02769 25-607).
T7 construct: Control protein in the adsorption ELISA
Description: adsorption ELISA on coated BSA control, serial dilutions; ND: not detectable.

Experiment [7] addresses T8, KIR3DL2 Extracellular Domain (UniProt P43630 22-340, limits assumed).
T8 construct: extracellular domain; ECD either purchased or produced in house; also called KIR3DL2 ECD
Description: adsorption ELISA on coated KIR ECD, serial dilutions; ND: not detectable. The procedure: as §1

For experiment [8], the target named is T9, KIR3DL3 Extracellular Domain (UniProt Q8N743 26-322, limits assumed).
T9 construct: extracellular domain; ECD either purchased or produced in house; also called KIR3DL3 ECD
The description is as above. How it is done:
as §1

For experiment [9], the target named is T10, KIR2DS4 Extracellular Domain (UniProt P43632 22-245, limits assumed).
T10 construct: extracellular domain; ECD either purchased or produced in house; also called KIR2DS4 ECD
Description: adsorption ELISA on coated KIR ECD, serial dilutions; printed as 'Affinity nM'. How it is done:
as §1

Experiment [10] has as its target T2, KIR3DS1 Extracellular Domain. Description: adsorption ELISA on coated KIR ECD, serial dilutions; ND: not detectable. The procedure: as §1
Experiment [11] has as its target T3, KIR2DL4 Extracellular Domain. Described as above. The procedure:
as §1

The target of experiment [12] is T6, KIR3DL1 Extracellular Domain. Described as above. The procedure:
as §1

In experiment [13] the target is T1, KIR2DL1 Extracellular Domain. The description is as above. How it is done: as §1
For experiment [14], the target named is T8, KIR3DL2 Extracellular Domain. The experiment can be described thus: adsorption ELISA on coated KIR ECD, serial dilutions; printed as 'Affinity nM'. The procedure: as §1
The target in experiment [15] is T10, KIR2DS4 Extracellular Domain. The experiment can be described thus: adsorption ELISA on coated KIR ECD, serial dilutions; ND: not detectable. How it is done: as §1

T1 sequence (P43626 22-245 limits assumed): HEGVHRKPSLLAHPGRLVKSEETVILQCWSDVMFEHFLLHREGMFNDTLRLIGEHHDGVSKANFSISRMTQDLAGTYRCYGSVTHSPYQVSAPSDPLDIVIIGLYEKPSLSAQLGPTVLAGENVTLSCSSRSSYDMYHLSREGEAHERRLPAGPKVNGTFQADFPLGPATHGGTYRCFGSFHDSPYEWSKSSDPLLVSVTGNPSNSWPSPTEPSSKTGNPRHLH
T9 sequence (Q8N743 26-322 limits assumed): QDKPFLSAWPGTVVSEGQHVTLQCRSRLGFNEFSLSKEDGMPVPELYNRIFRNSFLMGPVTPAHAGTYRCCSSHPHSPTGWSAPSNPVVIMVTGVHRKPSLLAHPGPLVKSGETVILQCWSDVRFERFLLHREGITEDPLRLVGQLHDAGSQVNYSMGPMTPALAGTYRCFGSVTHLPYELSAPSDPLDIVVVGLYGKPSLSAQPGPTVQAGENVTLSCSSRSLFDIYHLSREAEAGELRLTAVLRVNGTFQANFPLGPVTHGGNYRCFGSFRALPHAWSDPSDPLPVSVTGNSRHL
T4 sequence (P43628 22-245 limits assumed): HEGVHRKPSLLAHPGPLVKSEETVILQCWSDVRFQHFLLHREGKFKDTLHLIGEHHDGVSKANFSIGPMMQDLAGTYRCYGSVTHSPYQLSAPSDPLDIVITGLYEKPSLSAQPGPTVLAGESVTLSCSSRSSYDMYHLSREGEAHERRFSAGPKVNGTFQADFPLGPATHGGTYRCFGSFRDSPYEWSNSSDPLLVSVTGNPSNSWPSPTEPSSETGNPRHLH
T10 sequence (P43632 22-245 limits assumed): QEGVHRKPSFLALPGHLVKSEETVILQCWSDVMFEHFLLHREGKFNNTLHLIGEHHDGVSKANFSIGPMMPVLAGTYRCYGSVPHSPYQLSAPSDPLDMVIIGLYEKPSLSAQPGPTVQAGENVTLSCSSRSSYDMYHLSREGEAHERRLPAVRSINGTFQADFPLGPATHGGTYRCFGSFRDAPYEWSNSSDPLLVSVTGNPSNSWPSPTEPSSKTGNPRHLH
T8 sequence (P43630 22-340 limits assumed): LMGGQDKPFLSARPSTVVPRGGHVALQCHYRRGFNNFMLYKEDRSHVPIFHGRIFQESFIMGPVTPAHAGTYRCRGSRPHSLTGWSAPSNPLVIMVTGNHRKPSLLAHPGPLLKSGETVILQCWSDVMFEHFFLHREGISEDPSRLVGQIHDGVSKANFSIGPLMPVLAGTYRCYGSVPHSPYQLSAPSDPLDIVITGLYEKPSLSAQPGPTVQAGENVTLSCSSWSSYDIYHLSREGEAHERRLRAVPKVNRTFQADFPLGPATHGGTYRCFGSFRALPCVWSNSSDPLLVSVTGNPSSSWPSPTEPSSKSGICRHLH
T3 sequence (Q99706 22-242 limits assumed): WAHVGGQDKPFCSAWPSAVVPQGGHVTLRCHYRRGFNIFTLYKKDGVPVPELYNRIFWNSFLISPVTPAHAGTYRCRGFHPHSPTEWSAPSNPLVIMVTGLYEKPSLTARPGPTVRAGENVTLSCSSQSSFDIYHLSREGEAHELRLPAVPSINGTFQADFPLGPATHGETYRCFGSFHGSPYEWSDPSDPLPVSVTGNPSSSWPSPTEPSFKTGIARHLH
T5 sequence (P43627 22-245 limits assumed): as the sequence (P43628 22-245 limits assumed) above, with P16R, Q35E, R148C, T200I, E216K counted along it
T2 sequence (Q14943 22-340 limits assumed): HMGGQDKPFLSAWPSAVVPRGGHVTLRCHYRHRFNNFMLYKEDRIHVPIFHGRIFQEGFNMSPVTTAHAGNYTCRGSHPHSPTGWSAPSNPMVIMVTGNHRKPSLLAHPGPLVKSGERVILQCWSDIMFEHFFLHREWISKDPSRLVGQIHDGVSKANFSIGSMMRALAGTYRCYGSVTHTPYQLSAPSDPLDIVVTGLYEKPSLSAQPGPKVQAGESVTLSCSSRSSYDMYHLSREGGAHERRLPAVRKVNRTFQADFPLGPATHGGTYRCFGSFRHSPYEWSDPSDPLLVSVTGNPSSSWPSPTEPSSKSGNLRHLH
T7 sequence (P02769 25-607 limits assumed): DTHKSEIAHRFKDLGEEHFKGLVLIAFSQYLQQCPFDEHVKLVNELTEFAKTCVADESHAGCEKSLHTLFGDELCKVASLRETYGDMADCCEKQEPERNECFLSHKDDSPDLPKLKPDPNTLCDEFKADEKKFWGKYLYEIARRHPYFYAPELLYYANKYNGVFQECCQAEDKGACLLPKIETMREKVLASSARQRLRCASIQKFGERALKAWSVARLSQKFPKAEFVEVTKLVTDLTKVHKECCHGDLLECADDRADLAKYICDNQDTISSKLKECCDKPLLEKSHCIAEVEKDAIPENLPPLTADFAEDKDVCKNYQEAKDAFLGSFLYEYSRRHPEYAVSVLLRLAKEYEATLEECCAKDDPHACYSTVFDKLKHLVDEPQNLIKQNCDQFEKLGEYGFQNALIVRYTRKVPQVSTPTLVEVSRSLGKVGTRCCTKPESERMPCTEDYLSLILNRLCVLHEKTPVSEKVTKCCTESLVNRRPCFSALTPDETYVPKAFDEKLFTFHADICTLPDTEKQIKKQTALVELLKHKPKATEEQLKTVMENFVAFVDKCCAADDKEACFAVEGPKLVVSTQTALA
T6 sequence (P43629 22-340 limits assumed): as the sequence (Q14943 22-340 limits assumed) above, with V47I, G58S, M92V, R136K, W138G, S163P, R166L, L199P, L315P counted along it

B1: TRL8608 (antibody, V domains shown)
VH: QVQLVQSGAEVKKPGASVKISCKASGYTFTSYYMHWLRQAPGQGLEWMGVINPTDGSTSYAQKFHGRVTMTRVTSTSTVYMDLSSLRSDDTAMYYCAKAHIHAAEGEWFDPWGQGTLVTVSS
VL: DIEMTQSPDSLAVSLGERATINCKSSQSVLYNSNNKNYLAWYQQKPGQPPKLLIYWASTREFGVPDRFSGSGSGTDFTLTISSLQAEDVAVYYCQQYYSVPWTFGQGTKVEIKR
notes: Human variable regions cloned from donor B cells and fused recombinantly to an independently cloned generic constant region; Kappa light chain
In general, Kd refers to the constant that tells how readily two partners part at equilibrium. Read a low Kd as tighter binding. Consider B1, for which the Kd in [1] turned out to be 1100 nM; in experiment [2], 1800 nM; in experiment [3], 2000 nM; in [4] it was 79 nM; in experiment [5], 1800 nM; in experiment [6], 1900 nM. For the same molecule, the binding result (in the experiment with BSA; in [7]; in [8]) was “no binding” throughout.

B2: TRL8605 (antibody, V domains shown)
VH: QVQLVQSGGGVVQPGRSLRLSCAVSGFTFSSYGMHWVRQAPGKGLEWVTIISYDGSNYDYADSVKGRFTISRDNSKNMVYLQMNSLRADDTAVYYCAKDGFDYWGQGTLVTVSS
VL: DIVLTQSPDSLAVSLGERATINCKSSQSVLYSSNNRTYLAWFQQKSGQPPKLLIYWASTRQSGVADRFSGSGSGTDFTLTISSLQAEDVAVYYCQQYYTTPFTFGPGTRVDFKR
notes: as for B1
With B2, the Kd in experiment [1] amounted to 0.026 nM; in experiment [9], 2.6 nM; in experiment [4], 0.005 nM; in experiment [5], 0.018 nM. Besides, the binding result (with BSA; in [10]; in [11]; in experiment [12]; in experiment [7]; in experiment [8]) was “no binding” each time.

B3: TRL8504 (antibody, V domains shown)
VH: QVQLVESGGGVVRPGRSLRLSCAASGFTFNRFAMHWVRQAPGKGLEWVSVISYDGHNKYYIDSVKGRFTISRDDSKNTLHLQMNSLRPEDTAVYYCARARDDGRGIFDYWGQGILVTVSS
VL: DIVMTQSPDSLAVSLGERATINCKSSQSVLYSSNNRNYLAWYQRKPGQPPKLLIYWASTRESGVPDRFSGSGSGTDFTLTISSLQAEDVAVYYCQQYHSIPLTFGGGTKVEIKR
notes: as for B1
As to B3, the Kd was 55 nM in experiment [9]; 54 nM in [2]; 38 nM in [4]; 12 nM in experiment [5]; 10 nM in experiment [6]. For the same molecule, the binding result (with BSA; in experiment [13]; in experiment [11]; in experiment [7]; in experiment [8]) was “no binding” each time.

B4: TRL8507 (antibody, V domains shown)
VH: QVQLVESGGGVVQPGRSLRLSCAASGFTFSNYGMHWVRQAPGKGLEWVAVISFDGGNKYYADSVKGRFTISRDNSKNTLYLQMNSLRAEDTAVYYCAKSGYFDSSGYFYPYYYYGMDVWGQGTTVTVSS
VL: DIELTQAPSVSVSPGQTARITCSGDALPKEYAYWYQQKPGQAPVLVIYKDSERPSGIPERFSGSSSGTTVTLTISGVQAEDEGDYYCQSADSSGTHVVFGGGTKLTVL
notes: Human variable regions cloned from donor B cells and fused recombinantly to an independently cloned generic constant region; Lambda light chain
Turning to B4, the figures for the Kd in experiment [4], in experiment [5] and in experiment [14] were 0.1 nM, 40 nM and 67 nM, respectively. Further, the binding result (in the experiment with BSA; in experiment [13]; in experiment [15]; in [10]; in [11]; in experiment [12]) was “no binding” each time. Further, the binding result in experiment [8] is recorded as “no binding”.
